Measurements: FireProtDB (doi:10.1016/0022-2836(74)90188-0)

Details: Bos taurus, Thermal, DSC, glycine 0.04 M, reversible: yes(>90%)

Sequence of Cytochrome c wild type, P62894 (P62894 whole entry): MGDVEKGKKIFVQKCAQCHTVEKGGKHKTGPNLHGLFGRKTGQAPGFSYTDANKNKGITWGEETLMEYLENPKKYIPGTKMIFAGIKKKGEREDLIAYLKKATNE

Substance: Cytochrome c wild type, P62894
- Tm (pH 2.81): 52.5 °C
- unfolding enthalpy (calorimetric) (pH 2.81): 60 kcal/mol
- Tm (pH 2.92): 54 °C
- heat capacity change of unfolding (pH 2.92): 1.43 kcal/mol/K
- unfolding enthalpy (calorimetric) (pH 2.92): 65 kcal/mol
- Tm (pH 3.05): 59 °C
- heat capacity change of unfolding (pH 3.05): 1.48 kcal/mol/K
- unfolding enthalpy (calorimetric) (pH 3.05): 70.3 kcal/mol
- Tm (pH 3.12): 61 °C
- heat capacity change of unfolding (pH 3.12): 1.53 kcal/mol/K
- unfolding enthalpy (calorimetric) (pH 3.12): 74.3 kcal/mol
- Tm (pH 3.18): 62 °C
- heat capacity change of unfolding (pH 3.18): 1.36 kcal/mol/K
- unfolding enthalpy (calorimetric) (pH 3.18): 77 kcal/mol
- Tm (pH 3.4): 66 °C
- heat capacity change of unfolding (pH 3.4): 1.48 kcal/mol/K
- unfolding enthalpy (calorimetric) (pH 3.4): 84.6 kcal/mol
- Tm (pH 3.75): 70 °C
- heat capacity change of unfolding (pH 3.75): 1.7 kcal/mol/K
- unfolding enthalpy (calorimetric) (pH 3.75): 93.5 kcal/mol
- Tm (pH 3.94): 72 °C
- heat capacity change of unfolding (pH 3.94): 1.65 kcal/mol/K
- unfolding enthalpy (calorimetric) (pH 3.94): 96.3 kcal/mol
- Tm (pH 4.52): 77 °C
- heat capacity change of unfolding (pH 4.52): 1.48 kcal/mol/K
- unfolding enthalpy (calorimetric) (pH 4.52): 103 kcal/mol
- Tm (pH 4.83): 78 °C
- heat capacity change of unfolding (pH 4.83): 1.53 kcal/mol/K
- unfolding enthalpy (calorimetric) (pH 4.83): 107 kcal/mol
